In patent publication US20200040059A1:

How the values were obtained:
PD-L1 (human) = PD-L1 (human) (UniProt Q9NZQ7); assay: flow cytometry on HEK293 cells transfected with PD-L1
[1] = target: human CD28, full length, on transfected HEK293 cells (human) (UniProt P10747); assay: flow cytometry, Fc fusion at 66.6 nM on HEK293 cells transfected with CD28
[2] = target: human PD-L1, full length, on transfected HEK293 cells (human) (UniProt Q9NZQ7); assay: flow cytometry, Fc fusion at 22.2 nM on HEK293 cells transfected with PD-L1
Chain of human PD-L1, full length, on transfected HEK293 cells (human) (Q9NZQ7 19-290 limits assumed): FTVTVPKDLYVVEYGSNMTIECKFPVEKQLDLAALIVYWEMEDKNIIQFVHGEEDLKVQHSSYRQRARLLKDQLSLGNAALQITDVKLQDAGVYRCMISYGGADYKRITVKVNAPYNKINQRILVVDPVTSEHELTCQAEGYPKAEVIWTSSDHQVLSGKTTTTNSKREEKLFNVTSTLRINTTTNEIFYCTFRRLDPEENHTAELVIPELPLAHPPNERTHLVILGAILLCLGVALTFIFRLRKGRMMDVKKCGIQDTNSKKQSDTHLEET

CD226 (human) = target: T1, CD226 (human) (UniProt Q15762); assay: flow cytometry, cells expressing target, 25 nM
T1 sequence: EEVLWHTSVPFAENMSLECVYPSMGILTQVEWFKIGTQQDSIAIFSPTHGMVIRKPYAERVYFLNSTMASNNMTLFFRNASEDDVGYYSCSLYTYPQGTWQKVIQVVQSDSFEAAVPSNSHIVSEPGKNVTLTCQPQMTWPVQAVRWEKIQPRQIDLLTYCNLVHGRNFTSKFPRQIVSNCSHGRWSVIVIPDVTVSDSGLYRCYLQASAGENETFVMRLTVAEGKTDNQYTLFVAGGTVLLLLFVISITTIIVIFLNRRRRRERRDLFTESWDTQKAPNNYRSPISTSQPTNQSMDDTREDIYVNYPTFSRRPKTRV

CD112R (human) = CD112R (human) (UniProt Q6DKI7); assay: flow cytometry, cells expressing target, 25 nM
Chain of CD112R (human) (Q6DKI7 whole entry): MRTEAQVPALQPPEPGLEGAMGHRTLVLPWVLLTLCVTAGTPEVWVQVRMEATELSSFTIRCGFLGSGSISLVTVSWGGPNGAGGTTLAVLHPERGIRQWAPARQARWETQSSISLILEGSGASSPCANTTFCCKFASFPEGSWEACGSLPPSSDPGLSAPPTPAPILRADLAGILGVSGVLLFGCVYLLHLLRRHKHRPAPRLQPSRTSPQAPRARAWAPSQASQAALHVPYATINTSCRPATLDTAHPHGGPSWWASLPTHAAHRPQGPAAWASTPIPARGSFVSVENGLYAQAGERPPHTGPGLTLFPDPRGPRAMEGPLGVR

CD96 = target: T2, CD96 (UniProt P40200); assay: flow cytometry, cells expressing target, 25 nM
T2 sequence (looked up): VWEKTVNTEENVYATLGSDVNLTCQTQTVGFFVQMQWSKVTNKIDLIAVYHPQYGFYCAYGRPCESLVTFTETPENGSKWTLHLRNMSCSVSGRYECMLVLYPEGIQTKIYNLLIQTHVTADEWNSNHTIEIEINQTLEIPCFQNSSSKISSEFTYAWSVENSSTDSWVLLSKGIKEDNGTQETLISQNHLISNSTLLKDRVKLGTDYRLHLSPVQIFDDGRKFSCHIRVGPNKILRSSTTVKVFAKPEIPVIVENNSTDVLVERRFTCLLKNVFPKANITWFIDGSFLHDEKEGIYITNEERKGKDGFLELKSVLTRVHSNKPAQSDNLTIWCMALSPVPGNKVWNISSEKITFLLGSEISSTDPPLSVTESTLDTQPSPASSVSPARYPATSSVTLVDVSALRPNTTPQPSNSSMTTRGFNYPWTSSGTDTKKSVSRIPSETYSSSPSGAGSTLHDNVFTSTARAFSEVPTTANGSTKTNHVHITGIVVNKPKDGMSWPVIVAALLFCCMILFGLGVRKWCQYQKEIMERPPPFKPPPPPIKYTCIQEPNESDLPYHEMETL

[3] = target: T3, human CD226, full length, expressed on transfected cells (human) (UniProt Q15762); assay: flow cytometry on transfected cells
T3 sequence: T1 sequence

[4] = target: CD112R, expressed on transfected cells (human) (UniProt Q6DKI7); assay: flow cytometry on transfected cells
Chain of CD112R, expressed on transfected cells (human) (Q6DKI7 whole entry): as the sequence (Q6DKI7 whole entry) above

[5] = target: CD96, expressed on transfected cells (UniProt P40200); assay: flow cytometry on transfected cells
[6] = target: T4, human TIGIT, full length, expressed on transfected cells (human) (UniProt Q495A1); assay: flow cytometry on transfected cells
T4 sequence: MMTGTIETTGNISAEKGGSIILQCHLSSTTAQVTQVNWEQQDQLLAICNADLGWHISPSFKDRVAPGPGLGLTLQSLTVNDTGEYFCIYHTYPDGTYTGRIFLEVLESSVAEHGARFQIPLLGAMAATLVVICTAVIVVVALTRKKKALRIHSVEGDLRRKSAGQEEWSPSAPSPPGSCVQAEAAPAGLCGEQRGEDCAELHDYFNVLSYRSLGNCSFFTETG

Chain of PD-L1 (human) (Q9NZQ7 19-290 limits assumed): as the sequence (Q9NZQ7 19-290 limits assumed) above

Substance | MFI at 66.6 nM [1] [MFI] | MFI at 22.2 nM [2] [MFI] | MFI at 100 nM [3] | MFI at 100 nM [4] | MFI at 100 nM [5] | MFI at 100 nM [6] | also measured
CD80 IgV-Fc I30V/T57I/L70P/A71D/A91T (from UniProt P33681 35-141) (Fc fusion) | – | – | – | – | – | – | MFI at 22.2 nM (PD-L1 (human)): 5890 MFI
CD80 IgV-Fc Q27H/M43I/A71D/R73S (from UniProt P33681 35-141) (Fc fusion) | – | – | – | – | – | – | MFI at 22.2 nM (PD-L1 (human)): 8240 MFI
CD80 variant IgV-Fc A12T/E24D/E35D/D46V/I61V/L72P/E95V (from UniProt P33681 35-141) (Fc fusion) | 7410 | 1220 | – | – | – | – | –
CD80 variant IgV-Fc A71D/L72V/E95K (from UniProt P33681 35-141) (Fc fusion) | 6310 | 8420 | – | – | – | – | –
CD80 variant IgV-Fc D46E/A71D (from UniProt P33681 35-141) (Fc fusion) | 16800 | 22800 | – | – | – | – | –
CD80 variant IgV-Fc E35D (from UniProt P33681 35-141) (Fc fusion) | 3450 | 25500 | – | – | – | – | –
CD80 variant IgV-Fc E35D/A71D (IgV SEQ ID NO:622) (from UniProt P33681 35-141) (Fc fusion) | 15000 | 13800 | – | – | – | – | –
CD80 variant IgV-Fc E35D/I67L/A71D (from UniProt P33681 35-141) (Fc fusion) | 11200 | 9350 | – | – | – | – | –
CD80 variant IgV-Fc E35D/M43I/A71D (from UniProt P33681 35-141) (Fc fusion) | 6370 | 27300 | – | – | – | – | –
CD80 variant IgV-Fc E35G/K54E/A71D/L72P (from UniProt P33681 35-141) (Fc fusion) | 3700 | 1580 | – | – | – | – | –
CD80 variant IgV-Fc H18Y/A71D/L72P/E88V (from UniProt P33681 35-141) (Fc fusion) | 8860 | 1080 | – | – | – | – | –
CD80 variant IgV-Fc T13R/M42V/M47I/A71D (from UniProt P33681 35-141) (Fc fusion) | 16700 | 1870 | – | – | – | – | –
CD80 variant IgV-Fc V20I/M47V/A71D (from UniProt P33681 35-141) (Fc fusion) | 15100 | 9710 | – | – | – | – | –
CD80 variant IgV-Fc V22L/E35G/A71D/L72P (from UniProt P33681 35-141) (Fc fusion) | 8150 | 1400 | – | – | – | – | –
CD80 variant IgV-Fc Y31H/E35D/T41S/V68L/K93R/R94W (from UniProt P33681 35-141) (Fc fusion) | 2450 | 18900 | – | – | – | – | –
CD155 variant IgV-Fc V9I, P18S, S24P, H49Q, F58Y, Q60R, Q62K, L79P, F91S, T107M (from UniProt P15151 24-139) (Fc fusion) | – | – | – | – | – | – | MFI at 25 nM (CD226 (human)): 1090 MFI; MFI at 25 nM (CD112R (human)): 1030 MFI; MFI at 25 nM (CD96): 43900 MFI
CD155 variant IgV-Fc V9L, P18Y, V25A, V38G, M55V, A77T, L79P, M90I, F91S, L104M (from UniProt P15151 24-139) (Fc fusion) | – | – | – | – | – | – | MFI at 25 nM (CD226 (human)): 26000 MFI; MFI at 25 nM (CD112R (human)): 919 MFI; MFI at 25 nM (CD96): 18000 MFI
CD155 variant IgV-Fc V11A, P18T, N35S, L79P, S87T, F91S (from UniProt P15151 24-139) (Fc fusion) | – | – | – | – | – | – | MFI at 25 nM (CD226 (human)): 274000 MFI; MFI at 25 nM (CD112R (human)): 1270 MFI; MFI at 25 nM (CD96): 69900 MFI
CD155 variant L104E IgV-Fc (from UniProt P15151 24-139) (Fc fusion) | – | – | 2260 | 1800 | 1560 | 3140 | –

Substance | MFI at 66.6 nM [1] [MFI] | MFI at 22.2 nM [2] [MFI] | MFI at 100 nM [3] | MFI at 100 nM [4] | MFI at 100 nM [5] | MFI at 100 nM [6] | also measured
CD155 variant L104Q IgV-Fc (from UniProt P15151 24-139) (Fc fusion) | – | – | 3790 | 2120 | 1540 | 10300 | –
CD155 variant Q62F IgV-Fc (from UniProt P15151 24-139) (Fc fusion) | – | – | 2570 | 2710 | 2760 | 2210 | –
CD155 variant Q62Y IgV-Fc (from UniProt P15151 24-139) (Fc fusion) | – | – | 2620 | 1920 | 1830 | 2530 | –
CD155 variant S42A, S52L, L104E, G111R IgV-Fc (from UniProt P15151 24-139) (Fc fusion) | – | – | 1890 | – | – | 2260 | –
CD155 variant S42G IgV-Fc (from UniProt P15151 24-139) (Fc fusion) | – | – | 2450 | 1820 | 1700 | 4840 | –
CD155 variant S42N, L104Q, G111R IgV-Fc (from UniProt P15151 24-139) (Fc fusion) | – | – | 2310 | 1850 | 1960 | 2430 | –
CD155 variant S42N, S52Q, Q62F IgV-Fc (from UniProt P15151 24-139) (Fc fusion) | – | – | 2150 | 1860 | 1740 | 2400 | –
CD155 variant S42W IgV-Fc (from UniProt P15151 24-139) (Fc fusion) | – | – | 2130 | 2330 | 2560 | 2430 | –
CD155 variant S52E IgV-Fc (from UniProt P15151 24-139) (Fc fusion) | – | – | 2600 | 1900 | 1800 | 2660 | –
CD155 variant S52L IgV-Fc (from UniProt P15151 24-139) (Fc fusion) | – | – | 2680 | 2040 | 2040 | 2220 | –
CD155 variant S52L, L104E IgV-Fc (from UniProt P15151 24-139) (Fc fusion) | – | – | 2210 | – | 1830 | 4320 | –
CD155 variant S52M, L104Q IgV-Fc (from UniProt P15151 24-139) (Fc fusion) | – | – | 2250 | 1710 | 1630 | 2670 | –
CD155 variant S52Q IgV-Fc (from UniProt P15151 24-139) (Fc fusion) | – | – | 2020 | 1790 | 1820 | 2290 | –
CD155 variant S52R IgV-Fc (from UniProt P15151 24-139) (Fc fusion) | – | – | – | 2740 | 4850 | 4400 | –
CD155 variant S52R, Q62F, L104Q, G111R IgV-Fc (from UniProt P15151 24-139) (Fc fusion) | – | – | 3170 | 1730 | 2360 | 2970 | –
CD155 variant T45Q, S52L, L104E, G111R IgV-Fc (from UniProt P15151 24-139) (Fc fusion) | – | – | 2390 | 1740 | 1580 | 2290 | –
CD155 variant T45Q, S52L, V57L, L104E IgV-Fc (from UniProt P15151 24-139) (Fc fusion) | – | – | 5940 | 1500 | 1530 | 2860 | –
CD155 variant T45Q, S52Q IgV-Fc (from UniProt P15151 24-139) (Fc fusion) | – | – | 5790 | 1770 | 2450 | 4810 | –
CD155 variant T45Q, S52R, G111R IgV-Fc (from UniProt P15151 24-139) (Fc fusion) | – | – | 2080 | 1790 | 2340 | 4090 | –
